Measured values as given in patent US20210171647A1 (WUXI BIOLOGICS SHANGHAI, published 2021).

How the values were obtained:
Experiment in all cases: ELISA, antibody coated, OX40-ECD.His mutant supernatant; relative to silent alanine substitutions;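 further: captured OX40 mutant protein detected with HRP-labelled anti-His antibody, absorbance read-out, scaled to the mean signal of control mutants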
human OX40-ECD.His P121A = biological target: T1, human OX40-ECD.His P121A (human, UniProt P43489 29-214)
T1 construct: extracellular domain; not shown: C-terminal His-tag
T1 sequence (looked up): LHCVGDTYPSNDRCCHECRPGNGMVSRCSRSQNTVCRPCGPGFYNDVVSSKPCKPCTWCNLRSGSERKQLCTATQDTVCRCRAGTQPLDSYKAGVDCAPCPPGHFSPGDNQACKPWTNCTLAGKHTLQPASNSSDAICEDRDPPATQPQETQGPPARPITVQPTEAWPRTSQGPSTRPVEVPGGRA

human OX40-ECD.His N88A = biological target: T2, human OX40-ECD.His N88A (human, UniProt P43489 29-214)
T2 construct: extracellular domain; not shown: C-terminal His-tag
T2 sequence (looked up): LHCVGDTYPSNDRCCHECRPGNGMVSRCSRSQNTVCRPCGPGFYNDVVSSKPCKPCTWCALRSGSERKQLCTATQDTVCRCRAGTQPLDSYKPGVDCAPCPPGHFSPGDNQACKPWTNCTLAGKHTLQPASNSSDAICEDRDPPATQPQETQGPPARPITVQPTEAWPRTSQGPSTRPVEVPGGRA

human OX40-ECD.His H30A = biological target: T3, human OX40-ECD.His H30A (human, UniProt P43489 29-214)
T3 construct: extracellular domain; not shown: C-terminal His-tag
T3 sequence (looked up): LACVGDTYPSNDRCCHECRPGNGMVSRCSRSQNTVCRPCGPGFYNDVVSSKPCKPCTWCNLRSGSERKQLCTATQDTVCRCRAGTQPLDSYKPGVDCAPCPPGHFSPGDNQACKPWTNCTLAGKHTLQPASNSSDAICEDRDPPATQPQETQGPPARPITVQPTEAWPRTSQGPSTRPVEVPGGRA

human OX40-ECD.His N61A = biological target: T4, human OX40-ECD.His N61A (human, UniProt P43489 29-214)
T4 construct: extracellular domain; not shown: C-terminal His-tag
T4 sequence (looked up): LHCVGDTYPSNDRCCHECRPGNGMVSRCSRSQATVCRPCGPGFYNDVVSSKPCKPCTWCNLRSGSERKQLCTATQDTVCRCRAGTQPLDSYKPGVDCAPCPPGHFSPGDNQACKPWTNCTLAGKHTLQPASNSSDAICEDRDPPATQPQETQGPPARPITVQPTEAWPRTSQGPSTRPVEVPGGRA

human OX40-ECD.His R169A = biological target: T5, human OX40-ECD.His R169A (human, UniProt P43489 29-214)
T5 construct: extracellular domain; not shown: C-terminal His-tag
T5 sequence (looked up): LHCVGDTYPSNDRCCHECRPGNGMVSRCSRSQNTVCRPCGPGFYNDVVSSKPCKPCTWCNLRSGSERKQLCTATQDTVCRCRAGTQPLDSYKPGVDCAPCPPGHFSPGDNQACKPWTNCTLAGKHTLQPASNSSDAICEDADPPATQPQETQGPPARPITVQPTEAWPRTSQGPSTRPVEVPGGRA

human OX40-ECD.His H44A = biological target: T6, human OX40-ECD.His H44A (human, UniProt P43489 29-214)
T6 construct: extracellular domain; not shown: C-terminal His-tag
T6 sequence (looked up): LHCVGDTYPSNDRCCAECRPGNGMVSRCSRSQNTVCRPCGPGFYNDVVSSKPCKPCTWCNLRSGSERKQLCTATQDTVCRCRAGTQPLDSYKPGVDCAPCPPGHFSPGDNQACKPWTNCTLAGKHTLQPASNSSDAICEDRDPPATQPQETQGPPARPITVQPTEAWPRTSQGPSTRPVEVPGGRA

human OX40-ECD.His D40A = biological target: T7, human OX40-ECD.His D40A (human, UniProt P43489 29-214)
T7 construct: extracellular domain; not shown: C-terminal His-tag
T7 sequence (looked up): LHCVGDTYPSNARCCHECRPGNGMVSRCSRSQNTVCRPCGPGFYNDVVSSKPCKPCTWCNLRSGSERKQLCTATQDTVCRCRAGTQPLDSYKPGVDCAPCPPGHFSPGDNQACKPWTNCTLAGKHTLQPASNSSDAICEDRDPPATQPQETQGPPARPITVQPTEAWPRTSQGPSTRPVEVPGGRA

human OX40-ECD.His S54A = biological target: T8, human OX40-ECD.His S54A (human, UniProt P43489 29-214)
T8 construct: extracellular domain; not shown: C-terminal His-tag
T8 sequence (looked up): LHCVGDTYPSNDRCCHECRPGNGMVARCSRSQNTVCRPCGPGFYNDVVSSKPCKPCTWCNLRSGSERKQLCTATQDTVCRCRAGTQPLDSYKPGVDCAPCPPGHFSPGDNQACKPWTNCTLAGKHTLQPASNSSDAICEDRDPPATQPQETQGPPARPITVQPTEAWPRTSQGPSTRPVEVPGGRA

human OX40-ECD.His K152A = biological target: T9, human OX40-ECD.His K152A (human, UniProt P43489 29-214)
T9 construct: extracellular domain; not shown: C-terminal His-tag
T9 sequence (looked up): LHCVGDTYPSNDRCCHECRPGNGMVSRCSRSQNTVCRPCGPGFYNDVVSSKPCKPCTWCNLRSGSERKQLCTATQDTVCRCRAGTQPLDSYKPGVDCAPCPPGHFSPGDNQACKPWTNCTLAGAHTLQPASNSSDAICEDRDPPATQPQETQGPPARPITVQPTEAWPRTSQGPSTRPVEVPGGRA

human OX40-ECD.His S78A = biological target: T10, human OX40-ECD.His S78A (human, UniProt P43489 29-214)
T10 construct: extracellular domain; not shown: C-terminal His-tag
T10 sequence (looked up): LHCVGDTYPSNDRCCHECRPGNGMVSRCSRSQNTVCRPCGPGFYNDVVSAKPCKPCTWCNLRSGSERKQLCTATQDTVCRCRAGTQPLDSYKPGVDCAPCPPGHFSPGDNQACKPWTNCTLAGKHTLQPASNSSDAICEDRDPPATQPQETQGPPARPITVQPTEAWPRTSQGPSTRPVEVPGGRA

Fold Change (human OX40-ECD.His P121A): 0.974
Fold Change (human OX40-ECD.His N88A): 0.429
Fold Change (human OX40-ECD.His H30A): 1.01
Fold Change (human OX40-ECD.His N61A): 0.99
Fold Change (human OX40-ECD.His R169A): 1
Fold Change (human OX40-ECD.His H44A): 1
Fold Change (human OX40-ECD.His D40A): 0.994
Fold Change (human OX40-ECD.His S54A): 0.993
Fold Change (human OX40-ECD.His K152A): 0.81
Fold Change (human OX40-ECD.His S78A): 1
B1: 1.134.9-u1-IgG1L (antibody, V domains shown)
VH: QVQLQESGPGLVKPSGTLSLTCAVSGGSISSYNWWSWVRQPPGKGLEWIGEIYHGGNTNYNPSLKSRVTMSVDNSKNQFSLKLSSVTAADTAVYYCARAPGDWGGSPYFDFWGQGTLVTVSS
VL: SSELTQDPAVSVALGQTVRITCQGDNLRTYYASWYQQKPGQAPILLIYGRNKRPSGIPDRFSGSSSGNTASLTITGAQAEDEAAYYCNSRDSSGNPVVFGGGTKLTVL
notes: fully human IgG1, lambda
